Assay results taken from patent US11072643B2, “Fusion protein” (ADVANCECOR GMBH, priority 2017, dated 2021).
“Also recorded” adds a separate entry of the source. One block for each molecule: values may come before it.

Experiments:
[1] = tested on: Citrated blood of healthy donors; test: In vitro closure time with Innovance PFA-200; format: cell-based; settings: human blood ex vivo; for PFA-200 closure time, COL/ADP cartridges / PFA-200 closure time, COL/EPI cartridges: GPVI-CD39 21.7 to 217 nmol/L, versus PBS buffer control
Source text: (§1) Informed consent was obtained as approved by the local Ethics Committee. An overall number of 58 healthy volunteers was included into the study: blood samples from 39 subjects were taken for in vitro experiments using vascular agonists, and blood samples from 19 subjects for experiments involving human plaque material.
Citrated blood of healthy donors was mixed with antagonist in concentrations indicated in the figures, and added to Dade® PFA COL/EPI, Dade® PFA COL/ADP, or Innovance® PFA P2Y test cartridges (Siemens Healthcare, Erlangen, Germany). Blood was aspirated under high shear conditions (>5000/s) through a capillary onto a membrane with a small aperture coated with substances which activate platelets and lead to closure of this aperture. The time until closure of this aperture is monitored and expressed as in vitro closure time with a maximum closure time of 300 s.

human platelets = test: Platelet aggregation in human blood under static conditions (Multiplate impedance aggregometry); format: cell-based; settings: for inhibition of ADP-induced platelet aggregation: 6.5 μM ADP, equimolar concentrations; for inhibition of ADP-induced platelet aggregation / inhibition of collagen-induced platelet aggregation: human blood; for inhibition of platelet aggregation triggered by human plaque material: same concentrations
Method: as §1
The effect of GPVI-CD39 and control proteins on platelet aggregation was analyzed using the Multiplate® device (25). 1:1 diluted hirudin-anticoagulated blood was pre-incubated with antagonist for 3 min in the test cell without stirring to avoid platelet pre-activation (26). Agonist was added and samples were incubated for 6 min at 37° C. with stirring. The following agonists were used: 6.5 μM ADP, 12 μg/ml collagen isolated from rabbit aorta, or 103 μg/ml collagen type I secreted by human fibroblasts (VitroCol®, Advanced BioMatrix, San Diego, Calif.). Platelet aggregation was measured in arbitrary units over the time period (arbitrary units (AU)*min) (cumulative aggregation values).

[2] = ADPase activity of purified protein (Malachite Green phosphate detection); format: biochemical; settings: purified protein at various concentrations, 200 μM ADP, 37° C., pH 7.5
Method: (§2) Various concentrations of GPVI-CD39 or solCD39 protein or plasma samples from the pharmacokinetic study diluted 1:500-1:2000 in assay buffer were incubated in 25 mM Tris-HCl, 5 mM CaCl2, pH 7.5 with 200 μM ADP in a total volume of 100 μl for 30 min or 5 min at 37° C. Enzymatically released Pi was detected using the Malachite Green Phosphate Detection Kit (R&D Systems, Minneapolis, Minn.) according to the supplier's manual. A serial dilution of Pi standard was analyzed in parallel which facilitates quantification of released Pi. Absorbance was measured at a wave length of 630 nm using a Tecan Infinite 200 ELISA reader. Enzymatic activity of purified protein was calculated taking incubation time and protein amount into account and expressed as Units per mg of protein.

[3] = ADPase activity in plasma samples from the pharmacokinetic study; format: in vivo, mouse; settings: mice, IV 4 mg/kg GPVI-CD39 or 2 mg/kg solCD39, up to 48 h
Method: as §2
(§3) ale and female wild type C57BL/6J mice of the age of 12-22 weeks were used in this small scale study. An overall number of 9 mice were investigated. GPVI-CD39 or solCD39 were applied in a volume of 5 ml/kg into the right tail vein. At time points indicated in the figure blood sampling was performed by incision of the left tail vein using 25 μl heparinized capillaries. Blood samples were recovered by centrifugation at 2400×g for 10 min. The upper plasma phase was transferred to fresh tubes and stored frozen at −20° C.

C57BL/6J wild type mice = test: In vivo thrombus formation after FeCl3 injury in carotid arteries; parameters: species or system mouse
Method: For examination of arterial thrombus formation in vivo, 6-8 weeks old C57BL/6J wild type mice were anesthetized by injection of midazolame (5 mg/kg body weight), medetomidine (0.5 mg/kg body weight) and fentanyl (0.05 mg/kg body weight). In the ferric chloride model, an overall number of 21 mice was studied.
The common carotid artery was dissected free and the mice were injected intravenously 30 minutes before carotid injury with GPVI-CD39 (3 mg/kg body weight) or its control and with GP1bα-488 (Emfret Analytics, Eibelstadt, Germany) for platelet visualization. The carotid was exteriorized and injured by topical application of a filter paper saturated with 15% ferric chloride for 1 minute. Thrombus formation in arteries was monitored for 20 minutes or until complete occlusion (stop of blood flow for >1 min). Digital films and images were recorded with a Nikon eclipse intravital microscope and analysed offline.

[4] = Pharmacokinetic analysis: protein concentration in plasma by Fc-specific sandwich ELISA; format: in vivo, mouse; settings: mice, 4 mg/kg IV
Method: as §3
The concentration of GPVI-CD39 or Fc control protein in plasma samples was determined by Fc-specific sandwich ELISA. Wells of a MaxiSorp 96-well plate (Thermo Fisher Scientific, Waltham, Mass.) were coated with 0.1 μg/well goat-anti-human Fcγ antibody. Wells were washed three times with phosphate-buffered saline and tween-20 (PBST) between incubations. After blocking with 3% skimmed milk in PBST wells were incubated for 1 h with 50 μl of plasma from GPVI-CD39 treated (1:200) or Fc (1:500) treated mice diluted in PBST. Wells were incubated for 1 h with 100 μl of 80 ng/ml goat-anti-human IgG (H+L)-POD detection antibody. POD activity was visualized using 100 μl of Ultra TMB-ELISA substrate (Thermo Fisher Scientific, Waltham, Mass.) and signal intensities were read with a Tecan Infinite F200 ELISA reader.

C57BL/6J mice = test: In vivo tail bleeding time in mice; parameters: species or system mouse; settings: 15 min after IV 13 nmol/kg (4 mg/kg GPVI-CD39, 2 mg/kg GPVI-Fc), versus vehicle or buffer
Method: Test or control substances were applied into the tail vein of C57BL/6J mice. Animals were anesthetized by intraperitoneal injection of 0.5 mg/kg medetomidine, 5 mg/kg midazolame, and 0.05 mg/kg fentanyl. 10 min after protein delivery a blood sample of 20 μl was drawn for analysis of recombinant protein content and ADPase activity using a heparinized capillary. 15 min after protein application the distal 2 mm of the tail were cut off, the tail was immediately immersed into pre-warmed PBS (37° C.) buffer and time-monitored until bleeding stopped for at least 30 s. […] Animals were sacrificed and a final blood sample stored for analysis.

platelets = test: Plaque-induced platelet aggregation under flow; format: cell-based; settings: 150 nM GPVI-CD39
[5] = 103 μg/ml collagen secreted by human fibroblasts (VitroCol)
[6] = human plaque material 333 μg/ml

Molecule: CC(=O)Oc1ccccc1C(=O)O [ASA, acetyl salicylic acid, reference compound]
PFA-200 closure time, COL/ADP cartridges [1]: No significant differences between groups | PFA-200 closure time, COL/EPI cartridges [1]: inhibited the closure of the aperture completely; also recorded: significantly (p=0.04) prolonged

Molecule: CCCSc1nc(N[C@@H]2C[C@H]2c2ccc(F)c(F)c2)c2nnn([C@@H]3C[C@H](OCCO)[C@@H](O)[C@H]3O)c2n1 [ticagrelor, reference compound]
PFA-200 closure time, P2Y cartridges ([1]; 1.9 μM): prolongations | PFA-200 closure time, COL/ADP cartridges [1]: No significant differences between groups

IC50 (human platelets; human plaque material 333 μg/ml, approximate, read-out: IC50 of inhibition of platelet aggregation triggered by human plaque material): ~30 nM
B1: GPVI-CD39: fusion protein of extracellular domain of platelet glycoprotein VI, Fc of human IgG2 and extracellular domain of human CD39, 15 amino acid linker (SEQ ID NO: 1) (protein, listed as Homo sapiens)
chain: QSGPLPKPSLQALPSSLVPLEKPVTLRCQGPPGVDLYRLEKLSSSRYQDQAVLFIPAMKRSLAGRYRCSYQNGSLWSLPSDQLELVATGVFAKPSLSAQPGPAVSSGGDVTLQCQTRYGFDQFALYKEGDPAPYKNPERWYRASFPIITVTAAHSGTYRCYSFSSRDPYLWSAPSDPLELVVTGTSVTPSRLPTEPPSSVAEFSEATAELTVSFTNKVFTTETSRSITTSPKESDSPAGPARQYYTKGNGGRVECPPCPAPPVAGPSVFLFPPKPKDTLMISRTPEVTCVVVDVSHEDPEVQFNWYVDGVEVHNAKTKPREEQFNSTFRVVSVLTVVHQDWLNGKEYKCKVSNKGLPAPIEKTISKTKGQPREPQVYTLPPSREEMTKNQVSLTCLVKGFYPSDIAVEWESNGQPENNYKTTPPMLDSDGSFFLYSKLTVDKSRWQQGNVFSCSVMHEALHNHYTQKSLSLSPGKGGGGSGGGGSGGGGSTQNKALPENVKYGIVLDAGSSHTSLYIYKWPAEKENDTGVVHQVEECRVKGPGISKFVQKVNEIGIYLTDCMERAREVIPRSQHQETPVYLGATAGMRLLRMESEELADRVLDVVERSLSNYPFDFQGARIITGQEEGAYGWITINYLLGKFSQKTRWFSIVPYETNNQETFGALDLGGASTQVTFVPQNQTIESPDNALQFRLYGKDYNVYTHSFLCYGKDQALWQKLAKDIQVASNEILRDPCFHPGYKKVVNVSDLYKTPCTKRFEMTLPFQQFEIQGIGNYQQCHQSILELFNTSYCPYSQCAFNGIFLPPLQGDFGAFSAFYFVMKFLNLTSEKVSQEKVTEMMKKFCAQPWEEIKTSYAGVKEKYLSEYCFSGTYILSLLLQGYHFTADSWEHIHFIGKIQGSDAGWTLGYMLNLTNMIPAEQPLSTPLSHST
inhibition of ADP-induced platelet aggregation (human platelets): Effective inhibition; also recorded: markedly reduces ADP-induced platelet aggregation | inhibition of collagen-induced platelet aggregation (human platelets; 12 μg/ml collagen isolated from rabbit aorta): highly significant, dose-dependent inhibition; also recorded: reduces platelet aggregation more strongly than GPVI-Fc alone | inhibition of collagen-induced platelet aggregation (human platelets; [5]): inhibited platelet aggregation significantly; also recorded: reduces platelet aggregation more strongly than GPVI-Fc alone | inhibition of platelet aggregation triggered by human plaque material (human platelets; [6]): dose-dependent inhibition | mean ADPase activity (specific activity) [2]: 11.2±4.0 U/mg | PFA-200 closure time, P2Y cartridges ([1]; 47 nmol/L): statistically significant increase in closure time | PFA-200 closure time, P2Y cartridges ([1]; 217 nmol/L): statistically significant increase in closure time | PFA-200 closure time, COL/ADP cartridges [1]: no significant increase of closure times; also recorded: No significant differences between groups | PFA-200 closure time, COL/EPI cartridges [1]: no significant increase of closure times | ADPase activity in plasma over time [3]: diminished rapidly during the first 60 min but was still detectable at very low levels after 2 d | time to vessel occlusion (C57BL/6J wild type mice; 15% ferric chloride carotid injury, 3 mg/kg (10 nmol/kg) IV): 1083 s | effect on ferric chloride-induced thrombus formation / occlusion time (C57BL/6J wild type mice; 15% ferric chloride, 10 nmol/kg IV (3 mg/kg GPVI-CD39, 1.5 mg/kg GPVI-Fc), versus vehicle): fully effective in inhibiting arterial thrombosis; also recorded: strongly delayed ferric chloride-induced thrombus formation | plasma concentration time course [4]: decreased rapidly in the course of two hours | mean plasma concentration ([4]; 5 min after application): 95 µg/mL | plasma concentration ([4]; after 48 h): 6 µg/mL | tail bleeding time (C57BL/6J mice): no differences; also recorded: no effect on systemic bleeding times | inhibition of plaque-induced platelet aggregation (platelets): 81%

B2: GPVI-Fc: dimeric soluble glycoprotein VI-Fc fusion protein (Revacept), Fc derived from human IgG1, in clinical investigation (protein)
chain: QSGPLPKPSLQALPSSLVPLEKPVTLRCQGPPGVDLYRLEKLSSSRYQDQAVLFIPAMKRSLAGRYRCSYQNGSLWSLPSDQLELVATGVFAKPSLSAQPGPAVSSGGDVTLQCQTRYGFDQFALYKEGDPAPYKNPERWYRASFPIITVTAAHSGTYRCYSFSSRDPYLWSAPSDPLELVVTGTSVTPSRLPTEPPSPVAEFSEATAELTVSFTNEVFTTETSRSITASPKESDSPAGPARQYYTK
modifications: left off: a dimerising Fc or GST
notes: dimeric soluble glycoprotein VI-Fc fusion protein (Revacept), Fc derived from human IgG1, in clinical investigation
inhibition of ADP-induced platelet aggregation (human platelets): no inhibitory effect | inhibition of collagen-induced platelet aggregation (human platelets; [5]): minor inhibition | inhibition of platelet aggregation triggered by human plaque material (human platelets; [6]): markedly and significantly less effective than GPVI-CD39 | PFA-200 closure time, COL/ADP cartridges [1]: No significant differences between groups | tail bleeding time (C57BL/6J mice): no differences
